Data taken from patent US7879859B2, “Diagnosis and treatment of type 2 diabetes and other disorders” (Merck Sharp & Dohme Corp., priority 2005, dated 2011).
Where “and” joins values, the source holds several entries; their conditions need not be identical. Equal values may be shown once. d = 2'-deoxy (DNA); r = 2'-OH (RNA)

How the values were obtained:
isolated mouse islets = test: Glucose-stimulated insulin secretion (GSIS) in isolated mouse islets; assay type: cell-based; settings: 10 nM Octreotide, FIG. 1
Protocol: Pancreatic islets of Langerhans were isolated from the pancreas of normal C57BL/6J mice (Jackson Laboratory, Maine) by collagenase digestion and discontinuous Ficoll gradient separation, a modification of the original method of Lacy and Kostianovsky (Lacy et al., Diabetes 16:35-39, 1967). The islets were cultured overnight in RPMI 1640 medium (11 mM glucose) before GSIS assay. To measure GSIS, islets were first preincubated for 30 minutes in the Krebs-Ringer bicarbonate (KRB) buffer with 2 mM glucose (in petri dishes). The KRB medium contains 143.5 mM Na^+, 5.8 mM K^+, 2.5 mM Ca^2+, 1.2 mM Mg^2+, 124.1 mM Cl^−, 1.2 mM PO4^3−, 1.2 mM […], 25 mM CO3^2−, 2 mg/ml bovine serum albumin (pH 7.4). The islets were then transferred to a 96-well plate (one islet/well) and incubated at 37° C. for 60 minutes in 200 μl of KRB buffer with 2 or 16 mM glucose, and other agents to be tested such as octreotide and a SST3 antagonist. (Zhou et al., J. Biol. Chem. 278:51316-51323, 2003.) Insulin was measured in aliquots of the incubation buffer by ELISA with a commercial kit (ALPCO Diagnostics, Windham, N.H.).

sst3 mRNA = test: sst3 knockdown by Taqman real-time PCR; assay type: cell-based, rat; settings: 48 hours after siRNA treatment; INS-1 832/13 cells
Protocol: The degree of gene knockdown by the siRNA oligos was quantified by Taqman real-time PCR also at 48 hours after electroporation. The method consistently obtained >70% knockdown of the target genes mRNA. We used PDE3b (phosphodiesterase 3B) and GCK (glucokinase) as two positive controls. As shown in Example 5, Table 6 (infra), compared to control-shocked INS-1 cells (using random sequence siRNA oligos), knocking down PDE3b increased GSIS by 1.5 to 3 fold, consistent with its role in hydrolyzing cAMP, a key positive mediator of GSIS.
The degree of sst3 knockdown was also examined 48 hours after siRNA treatment using Taqman real-time PCR. The rat sst3 specific probes were designed using Primer Express Software (Applied Biosystem) based on SEQ ID NO: 7 (Forward Primer: […] (SEQ ID NO: 15); Reverse Primer: […] (SEQ ID NO: 16); Probe: […] (SEQ ID NO: 17)). We observed about 55-75% reduction of sst3 mRNA in siRNA-treated cells.

INS-1 (832/13) cells = test: GSIS assay after siRNA mediated gene knockdown; assay type: cell-based, rat; settings: compared to random sequence siRNA, 48 hours after electroporation
Protocol: Three 21-mer siRNA oligos were designed against each candidate gene and used as a pool at the final concentration of 20 uM. The siRNA oligos were delivered to the cells by Nucleofector Device (Amaxa, Gaithersburg, Md.). The INS-1 (832/13) cells were trypsinized, centrifuged, and resuspended in 100 ul Nucleofector solution V (2.25×10^6 cells per reaction). Seven and a half microliters of pooled siRNA were then added to the cell suspension. The cells were electroporated with Amaxa Nucleofector Device program T21. After electroporation, the cells were transferred and split into 9 wells in 96-well plate with 200 ul of regular culture medium (RPMI 1640 with 10% FCS and 11 mM glucose).
GSIS assays were performed after 48 hours. Prior to the assay, cells were washed once with glucose-free Krebs-Ringer Bicarbonate (KRB) medium and cells were incubated with the KRB medium for another 2 hours. The medium were replaced with fresh KRB supplemented with 2, 8, and 16 mM glucose and the cells were incubated for another 2 hours. Supernatants were taken out at the end of incubation for insulin measurement by Ultrasensitive Rat Insulin ELISA kit (ALPCO, Salem, N.H.).
GSIS assays were performed 48 hours after electroporation. The ratios of insulin concentration measured between 8 mM and 2 mM (G8/G2) and 16 mM and 2 mM (G16/G2) glucose treatments are functional readouts for GSIS. […]

In the case of C[C@@H](O)[C@@H]1NC(=O)[C@H](CCCCN)NC(=O)[C@@H](Cc2c[nH]c3ccccc23)NC(=O)[C@H](Cc2ccccc2)NC(=O)[C@@H](NC(=O)[C@H](N)Cc2ccccc2)CSSC[C@@H](C(=O)N[C@H](CO)[C@@H](C)O)NC1=O [Octreotide], the “Effect on GSIS” value (isolated mouse islets) is reported as “significantly suppressed”.

B1: si-SST3: pool of three pairs of siRNA oligos against rat sst3 (SEQ ID NO: 9-14) (nucleic acid)
chain 1: CCUUUCGGCUCUCUCAUGUTT
chain 2: GGGUUUGCUGGGCAAUUCATT
chain 3: CUGACGAACUCUUCAUGCUTT
chain 4: ACAUGAGAGAGCCGAAAGGTT
chain 5: UGAAUUGCCCAGCAAACCCTT
chain 6: AGCAUGAAGAGUUCGUCAGTT
modifications: sugars from the 5' end r19 d2, backbone not given here
B1 was tested, and the “Reduction of sst3 mRNA” value (sst3 mRNA) was 55-75%, the “Normalized fold of stimulation of GSIS, G8/G2” value (INS-1 (832/13) cells; insulin ratio 8 mM/2 mM glucose) was 2.9 and 3 and 2.8 and the “Normalized fold of stimulation of GSIS, G16/G2” value (INS-1 (832/13) cells; insulin ratio 16 mM/2 mM glucose) was 4.4 and 2.9 and 2.7 and 4.3.
